Measured values published in publication PMC7904734, “ORP/Osh mediate cross-talk between ER-plasma membrane contact site components and plasma membrane SNAREs” (Cellular and Molecular Life Sciences: CMLS, 2020).

How the values were obtained:
[1] = target: YFP(C)·Sec22p (S. cerevisiae) (UniProt P22214); experiment: split reporter (BiFC, NanoBiT); BiFC in living Δosh1-3 yeast cells (Y36), compared with wt (Y2)
His·Osh3p = target: T1, His·Osh3p (S. cerevisiae, UniProt P38713 1-996); experiment: pull-down; 2 μM GST·Sec9p(421–651) or GST on Glutathione-Agarose, equal molar His·Osh3p, 100 µl PBS + 0.1% Triton X-100, 1 h, room temperature; SDS-PAGE, Coomassie; conditions: both partners purified
T1 construct: Osh3p, PCR amplified and cloned into vector 1509; also called His6-tagged Osh3p; source: bacterial production, purified (Ni-NTA agarose)
T1 sequence (looked up): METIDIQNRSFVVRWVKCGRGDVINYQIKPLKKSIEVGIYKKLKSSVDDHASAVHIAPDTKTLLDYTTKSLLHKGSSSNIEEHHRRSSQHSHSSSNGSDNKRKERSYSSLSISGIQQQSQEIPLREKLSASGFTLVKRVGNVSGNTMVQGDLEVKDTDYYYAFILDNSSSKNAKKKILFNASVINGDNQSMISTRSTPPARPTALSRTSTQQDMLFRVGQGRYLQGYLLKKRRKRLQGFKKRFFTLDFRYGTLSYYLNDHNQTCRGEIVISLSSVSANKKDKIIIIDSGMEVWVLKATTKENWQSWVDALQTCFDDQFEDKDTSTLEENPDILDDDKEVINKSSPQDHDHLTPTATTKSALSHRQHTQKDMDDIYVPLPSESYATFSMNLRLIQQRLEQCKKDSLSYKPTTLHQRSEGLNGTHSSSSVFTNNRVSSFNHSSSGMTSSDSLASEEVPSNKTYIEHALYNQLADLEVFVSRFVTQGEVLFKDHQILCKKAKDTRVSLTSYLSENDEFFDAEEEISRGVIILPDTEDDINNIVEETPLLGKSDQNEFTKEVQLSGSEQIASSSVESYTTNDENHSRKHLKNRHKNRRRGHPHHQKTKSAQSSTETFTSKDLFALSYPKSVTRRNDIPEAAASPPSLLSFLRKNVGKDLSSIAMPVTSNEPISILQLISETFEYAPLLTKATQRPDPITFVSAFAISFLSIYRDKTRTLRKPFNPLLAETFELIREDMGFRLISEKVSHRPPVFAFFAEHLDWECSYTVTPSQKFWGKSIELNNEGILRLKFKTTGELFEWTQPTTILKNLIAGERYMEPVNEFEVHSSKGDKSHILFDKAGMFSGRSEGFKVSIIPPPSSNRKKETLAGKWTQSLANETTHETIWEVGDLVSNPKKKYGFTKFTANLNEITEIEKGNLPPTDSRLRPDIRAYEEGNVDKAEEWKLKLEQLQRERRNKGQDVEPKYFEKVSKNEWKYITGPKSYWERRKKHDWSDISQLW

[2] = target: T2, Venus(C)·VAPA (lentiviral) (human), Q9P0L0; experiment: split reporter (BiFC, NanoBiT); BiFC of Venus(N)·VAPA and Venus(C)·VAPA in wt mouse hippocampal neurons, lentiviral; scrambled or ORP2 shRNA; infected DIV 3 and fixed DIV 7, or infected DIV 7 and fixed DIV 14; conditions: remark: other sources report otherwise
T2 chain: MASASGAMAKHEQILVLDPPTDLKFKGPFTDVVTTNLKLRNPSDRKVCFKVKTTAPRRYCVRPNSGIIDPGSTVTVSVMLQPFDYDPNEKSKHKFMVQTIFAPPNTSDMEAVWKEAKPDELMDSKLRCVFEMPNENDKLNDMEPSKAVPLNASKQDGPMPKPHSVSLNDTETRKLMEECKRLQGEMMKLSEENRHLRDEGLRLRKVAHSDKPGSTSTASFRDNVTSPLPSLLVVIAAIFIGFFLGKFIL

Chain of YFP(C)·Sec22p (S. cerevisiae) (P22214 whole entry): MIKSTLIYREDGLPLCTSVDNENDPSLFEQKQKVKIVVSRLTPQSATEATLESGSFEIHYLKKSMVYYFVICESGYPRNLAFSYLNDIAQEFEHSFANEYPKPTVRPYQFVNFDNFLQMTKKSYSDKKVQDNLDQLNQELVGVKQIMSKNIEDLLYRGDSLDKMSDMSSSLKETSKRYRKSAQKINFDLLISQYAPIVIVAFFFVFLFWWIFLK

For “YFP(N)·Sso1p (from UniProt P32867 1-290) (natural protein)”, the reduction of the BiFC signal in the Δosh1-3 strain against wt [1] was 19%.

B1: GST·Sec9p(421–651) (domain or fragment, S. cerevisiae, UniProt P40357 421-651, looked up)
chain: EEDEAVDEIKQEIKFTKQSSVASTRNTLKMAQDAERAGMNTLGMLGHQSEQLNNVEGNLDLMKVQNKVADEKVAELKKLNRSILAVHVSNPFNSKRRRREREEQLKNRKIEEKLMREQTSQQLSQSTQRIEGAMNANNNISEVRERYQRKNVLEKAKRYQFENDEEDDEMELEIDRNLDQIQQVSNRLKKMALTTGKELDSQQKRLNNIEESTDDLDINLHMNTNRLAGIR
notes: cut out of 1530 and cloned into 977
B1: binds (His·Osh3p).

B2: Venus(N)·VAPA (lentiviral), Q9P0L0 1-249 (natural protein)
chain: T2 chain
For B2, the fold reduction of VAPA-VAPA BiFC patches in ORP2 KD cells (transduced DIV 3, fixed DIV 7) [2] was 1.7 fold and the fold reduction of VAPA-VAPA BiFC patches in ORP2 KD cells (transduced DIV 7, fixed DIV 14) [2] was 2.3 fold.
